Patent US20060257938A1, “Method of screening for drugs that block ligand binding to a lipid binding protein” (priority 2005, published 2006)
Numbering of substitutions follows the chain as printed. Where “and” joins values, the source holds several entries; their conditions need not be identical. Identical values can stand only once.

B1: 102L, 72A (protein, listed as Rattus norvegicus)
chain: AFDGTWKVDRNENYEKFMEKMGINVVKRKLGAHDNLKLTITQEGNKFTVKESSNFRNIDVVFELGVDFAYSAADGTELTGTWTMEGNKLVGKFKRVDNGKELIAVREISGNELIQTYTYEGVEAKRIFKKE
modifications: PEPTIDE (1)...(131) wild-type rat intestinal fatty acid binding protein
B2: 17E, 72A (protein, listed as Rattus norvegicus)
chain: B1 chain with F17E
modifications: PEPTIDE (1)...(131) wild-type rat intestinal fatty acid binding protein
B3: 17F, 72A (protein, listed as Rattus norvegicus)
chain: B1 chain
modifications: PEPTIDE (1)...(131) wild-type rat intestinal fatty acid binding protein
B4: 17G, 72A (protein, listed as Rattus norvegicus)
chain: B1 chain with F17G
modifications: PEPTIDE (1)...(131) wild-type rat intestinal fatty acid binding protein
B5: 17H, 72A (protein, listed as Rattus norvegicus)
chain: B1 chain with F17H
modifications: PEPTIDE (1)...(131) wild-type rat intestinal fatty acid binding protein
B6: 17I, 72A (protein, listed as Rattus norvegicus)
chain: B1 chain with F17I
modifications: PEPTIDE (1)...(131) wild-type rat intestinal fatty acid binding protein
B7: 17K 72A (protein, listed as Rattus norvegicus)
chain: B1 chain with F17K
modifications: PEPTIDE (1)...(131) wild-type rat intestinal fatty acid binding protein
B8: 17L, 72A (protein, listed as Rattus norvegicus)
chain: B1 chain with F17L
modifications: PEPTIDE (1)...(131) wild-type rat intestinal fatty acid binding protein
B9: 17M, 72A (protein, listed as Rattus norvegicus)
chain: B1 chain with F17M
modifications: PEPTIDE (1)...(131) wild-type rat intestinal fatty acid binding protein
B10: 17N, 72A (protein, listed as Rattus norvegicus)
chain: B1 chain with F17N
modifications: PEPTIDE (1)...(131) wild-type rat intestinal fatty acid binding protein
B11: 17P, 72A (protein, listed as Rattus norvegicus)
chain: B1 chain with F17P
modifications: PEPTIDE (1)...(131) wild-type rat intestinal fatty acid binding protein
B12: 17Q, 72A (protein, listed as Rattus norvegicus)
chain: B1 chain with F17Q
modifications: PEPTIDE (1)...(131) wild-type rat intestinal fatty acid binding protein
B13: 17R, 72A (protein, listed as Rattus norvegicus)
chain: B1 chain with F17R
modifications: PEPTIDE (1)...(131) wild-type rat intestinal fatty acid binding protein
B14: 17S, 72A (protein, listed as Rattus norvegicus)
chain: B1 chain with F17S
modifications: PEPTIDE (1)...(131) wild-type rat intestinal fatty acid binding protein
B15: 17T, 72A (protein, listed as Rattus norvegicus)
chain: B1 chain with F17T
modifications: PEPTIDE (1)...(131) wild-type rat intestinal fatty acid binding protein
B16: 17V, 72A (protein, listed as Rattus norvegicus)
chain: B1 chain with F17V
modifications: PEPTIDE (1)...(131) wild-type rat intestinal fatty acid binding protein
B17: 17W, 72A (protein, listed as Rattus norvegicus)
chain: B1 chain with F17W
modifications: PEPTIDE (1)...(131) wild-type rat intestinal fatty acid binding protein
B18: 17Y, 72A (protein, listed as Rattus norvegicus)
chain: B1 chain with F17Y
modifications: PEPTIDE (1)...(131) wild-type rat intestinal fatty acid binding protein
B19: 18Q, 72A (protein, listed as Rattus norvegicus)
chain: B1 chain with M18Q
modifications: PEPTIDE (1)...(131) wild-type rat intestinal fatty acid binding protein
B20: 21W, 72A (protein, listed as Rattus norvegicus)
chain: B1 chain with M21W
modifications: PEPTIDE (1)...(131) wild-type rat intestinal fatty acid binding protein
B21: 23F2, 72A (protein, listed as Rattus norvegicus)
chain: B1 chain with I23F
modifications: PEPTIDE (1)...(131) wild-type rat intestinal fatty acid binding protein
B22: 23H1, 72A (protein, listed as Rattus norvegicus)
chain: B1 chain with I23H
modifications: PEPTIDE (1)...(131) wild-type rat intestinal fatty acid binding protein
B23: 23K1, 72A (protein, listed as Rattus norvegicus)
chain: B1 chain with I23K
modifications: PEPTIDE (1)...(131) wild-type rat intestinal fatty acid binding protein

Experiment: Probe fluorescence ratio response to arachidonic acid relative to ADIFAB2
Type: binding
Conditions: arachidonic acid; response relative to ADIFAB2
In short: (§1)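 Fluorescently labeled rat intestinal FABP variants were read at two emission wavelengths, near the unbound maximum (about 420 to 480 nm) and the FFA-bound maximum (about 495 to 580 nm). R = Fλ1/Fλ2 after subtracting probe-free intensity; ΔR = R+agent − R0, normalized to ADIFAB2 (rI-FABP-L72A).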

With B1 the “DR/DR AA” value was 1.25 and 1.103.
For B8, the “DR/DR AA” value was 0.52 and 0.525.
With B16 the “DR/DR AA” value was 0.64 and 0.639.
With B17 the “DR/DR AA” value was 1.42 and 1.421.
For B18, the “DR/DR AA” value was 0.73 and 0.729.

In order of falling “DR/DR AA” value:
1. B20  3.70
2. B3  1.37
3. B2  0.80
4. B6  0.64
5. B12  0.62
6. B9  0.59
7. B5  0.52
8. B11  0.51
9. B14  0.50
10. B15  0.50
11. B4  0.48
12. B10  0.47
13. B13  0.43
14. B7  0.28
15. B21  0.22
16. B22  0.16
17. B23  0.13
18. B19  0.09

Experiment: Probe fluorescence ratio response to linoleic acid relative to ADIFAB2
Type: binding
Conditions: response relative to ADIFAB2
In short: as §1

For B1, the “DR/DR LA” value was 1.40 and 1.267.
In the case of B6, the “DR/DR LA” value is reported as 0.50 and 0.499.
With B9 the “DR/DR LA” value was 0.49 and 0.489.
With B16 the “DR/DR LA” value was 0.55 and 0.549.
With B17 the “DR/DR LA” value was 1.42 and 1.416.
With B18 the “DR/DR LA” value was 0.71 and 0.712.

In order of rising “DR/DR LA” value:
1. B19  0.11
2. B22  0.13
3. B23  0.14
4. B21  0.19
5. B7  0.33
6. B8  0.42
7. B5  0.48
8. B10  0.50
9. B15  0.51
10. B13  0.52
11. B14  0.56
12. B4  0.58
13. B12  0.59
14. B11  0.60
15. B2  0.90
16. B3  1.35
17. B20  2.43

Experiment: Probe fluorescence ratio response to oleic acid relative to ADIFAB2
Type: binding
Conditions: response relative to ADIFAB2
In short: as §1

With B1 the “DR/DR OA” value was 1.40 and 1.366.
With B6 the “DR/DR OA” value was 0.62 and 0.624.
With B8 the “DR/DR OA” value was 0.46 and 0.459.
For B16, the “DR/DR OA” value was 0.56 and 0.558.
With B17 the “DR/DR OA” value was 1.24 and 1.241.
For B18, the “DR/DR OA” value was 0.73 and 0.732.

In order of rising “DR/DR OA” value:
1. B19  0.08
2. B22  0.11
3. B23  0.13
4. B21  0.20
5. B7  0.31
6. B5  0.40
7. B13  0.45
8. B14  0.47
9. B9  0.49
10. B10  0.49
11. B15  0.49
12. B4  0.52
13. B11  0.55
14. B12  0.55
15. B2  0.84
16. B3  1.42
17. B20  3.02

Experiment: Probe fluorescence ratio response to palmitic acid relative to ADIFAB2
Type: binding
Conditions: response relative to ADIFAB2
In short: as §1

In the case of B1, the “DR/DR PA” value is reported as 0.97 and 1.012.
With B6 the “DR/DR PA” value was 0.28 and 0.283.
For B8, the “DR/DR PA” value was 0.28 and 0.279.
In the case of B9, the “DR/DR PA” value is reported as 0.28 and 0.281.
With B16 the “DR/DR PA” value was 0.31 and 0.308.
In the case of B17, the “DR/DR PA” value is reported as 1.07 and 1.067.

In order of rising “DR/DR PA” value:
1. B23  0.08
2. B19  0.09
3. B21  0.12
4. B7  0.13
5. B22  0.13
6. B5  0.22
7. B10  0.22
8. B13  0.22
9. B11  0.24
10. B14  0.25
11. B15  0.25
12. B4  0.28
13. B12  0.29
14. B18  0.50
15. B2  0.53
16. B3  1.14
17. B20  1.45

Experiment: Probe fluorescence ratio response to linolenic acid relative to ADIFAB2
Type: binding
Conditions: response relative to ADIFAB2
In short: as §1

For B1, the “DR/DR LNA” value was 1.41 and 1.284.
For B6, the “DR/DR LNA” value was 0.54 and 0.541.
For B8, the “DR/DR LNA” value was 0.45 and 0.447.
For B9, the “DR/DR LNA” value was 0.53 and 0.532.
In the case of B16, the “DR/DR LNA” value is reported as 0.59 and 0.586.
In the case of B17, the “DR/DR LNA” value is reported as 1.61 and 1.611.
With B18 the “DR/DR LNA” value was 0.81 and 0.806.

In order of falling “DR/DR LNA” value:
1. B20  2.40
2. B3  1.38
3. B2  0.88
4. B11  0.63
5. B4  0.62
6. B14  0.61
7. B12  0.59
8. B10  0.51
9. B15  0.51
10. B5  0.50
11. B13  0.48
12. B7  0.29
13. B21  0.17
14. B22  0.17
15. B19  0.13
16. B23  0.13
